Where a SMILES comes first, the peptide text is derived from it. [ ]: non-standard residue; d: D form. The star is where a group is joined. X1 = O=C(CCCCCCCn1cnc2c(Br)c(Br)c(Br)c(Br)c21)*
Assays:
Test in all cases: Kinase panel residual activity
Format in all cases: biochemical
Details in all cases: compound at 1 micromolar
DYRK2 = target: T1, DYRK2 (Homo sapiens, UniProt Q92630)
T1 sequence (Q92630 1-601): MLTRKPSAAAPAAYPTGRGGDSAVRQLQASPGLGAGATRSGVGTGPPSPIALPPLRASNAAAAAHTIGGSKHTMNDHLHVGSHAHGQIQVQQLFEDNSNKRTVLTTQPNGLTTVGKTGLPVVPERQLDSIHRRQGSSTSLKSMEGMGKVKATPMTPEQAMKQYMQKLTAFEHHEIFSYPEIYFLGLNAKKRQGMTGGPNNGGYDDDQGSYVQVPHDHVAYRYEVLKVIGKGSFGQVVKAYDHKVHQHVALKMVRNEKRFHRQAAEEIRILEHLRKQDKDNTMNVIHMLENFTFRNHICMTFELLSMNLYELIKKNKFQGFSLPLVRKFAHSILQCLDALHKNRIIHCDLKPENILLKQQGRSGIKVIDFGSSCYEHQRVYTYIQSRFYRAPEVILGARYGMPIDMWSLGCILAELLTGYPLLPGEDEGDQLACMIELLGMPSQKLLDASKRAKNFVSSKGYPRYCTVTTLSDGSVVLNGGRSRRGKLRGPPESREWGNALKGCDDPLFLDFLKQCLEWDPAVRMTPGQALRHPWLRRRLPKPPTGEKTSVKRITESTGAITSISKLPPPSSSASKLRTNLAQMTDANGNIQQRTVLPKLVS

DYRK3 = target: T2, DYRK3 (Homo sapiens, UniProt O43781)
T2 sequence (O43781 1-588): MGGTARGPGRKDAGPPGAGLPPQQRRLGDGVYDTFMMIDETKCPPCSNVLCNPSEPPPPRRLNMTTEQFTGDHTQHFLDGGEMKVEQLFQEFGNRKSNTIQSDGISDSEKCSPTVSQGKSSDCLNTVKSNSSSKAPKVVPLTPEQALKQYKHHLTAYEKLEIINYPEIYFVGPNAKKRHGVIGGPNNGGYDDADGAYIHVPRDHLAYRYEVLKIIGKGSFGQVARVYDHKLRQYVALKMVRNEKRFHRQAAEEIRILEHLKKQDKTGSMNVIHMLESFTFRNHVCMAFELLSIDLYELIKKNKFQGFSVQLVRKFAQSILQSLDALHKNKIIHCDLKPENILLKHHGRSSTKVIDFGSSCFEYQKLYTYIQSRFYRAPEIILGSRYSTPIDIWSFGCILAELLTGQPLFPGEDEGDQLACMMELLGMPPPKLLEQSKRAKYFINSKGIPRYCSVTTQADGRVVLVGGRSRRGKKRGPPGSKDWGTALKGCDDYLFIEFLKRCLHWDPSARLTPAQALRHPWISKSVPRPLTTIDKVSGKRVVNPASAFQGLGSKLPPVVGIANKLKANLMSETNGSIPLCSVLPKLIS

NUAK1 = target: T3, NUAK1 (Homo sapiens, UniProt O60285)
T3 sequence (O60285 1-661): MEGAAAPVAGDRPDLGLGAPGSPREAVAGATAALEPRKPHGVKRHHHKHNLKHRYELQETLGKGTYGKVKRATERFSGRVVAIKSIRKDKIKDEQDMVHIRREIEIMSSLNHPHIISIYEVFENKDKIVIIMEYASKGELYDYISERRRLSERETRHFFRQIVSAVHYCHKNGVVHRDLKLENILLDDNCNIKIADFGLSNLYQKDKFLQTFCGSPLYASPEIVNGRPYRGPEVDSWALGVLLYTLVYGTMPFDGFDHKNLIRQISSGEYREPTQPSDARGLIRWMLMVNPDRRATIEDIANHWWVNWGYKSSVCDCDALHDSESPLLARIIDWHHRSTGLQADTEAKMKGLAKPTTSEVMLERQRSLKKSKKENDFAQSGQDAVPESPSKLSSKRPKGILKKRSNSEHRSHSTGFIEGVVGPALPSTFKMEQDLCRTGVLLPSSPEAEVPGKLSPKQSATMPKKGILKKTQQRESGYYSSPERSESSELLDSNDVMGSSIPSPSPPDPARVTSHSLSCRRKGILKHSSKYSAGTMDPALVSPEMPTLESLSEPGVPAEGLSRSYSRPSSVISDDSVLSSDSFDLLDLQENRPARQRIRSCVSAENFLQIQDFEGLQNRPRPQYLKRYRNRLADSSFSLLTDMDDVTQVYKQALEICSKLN

TAO1 = target: T4, TAO1 (Homo sapiens, UniProt Q7L7X3)
T4 sequence (Q7L7X3 1-1001): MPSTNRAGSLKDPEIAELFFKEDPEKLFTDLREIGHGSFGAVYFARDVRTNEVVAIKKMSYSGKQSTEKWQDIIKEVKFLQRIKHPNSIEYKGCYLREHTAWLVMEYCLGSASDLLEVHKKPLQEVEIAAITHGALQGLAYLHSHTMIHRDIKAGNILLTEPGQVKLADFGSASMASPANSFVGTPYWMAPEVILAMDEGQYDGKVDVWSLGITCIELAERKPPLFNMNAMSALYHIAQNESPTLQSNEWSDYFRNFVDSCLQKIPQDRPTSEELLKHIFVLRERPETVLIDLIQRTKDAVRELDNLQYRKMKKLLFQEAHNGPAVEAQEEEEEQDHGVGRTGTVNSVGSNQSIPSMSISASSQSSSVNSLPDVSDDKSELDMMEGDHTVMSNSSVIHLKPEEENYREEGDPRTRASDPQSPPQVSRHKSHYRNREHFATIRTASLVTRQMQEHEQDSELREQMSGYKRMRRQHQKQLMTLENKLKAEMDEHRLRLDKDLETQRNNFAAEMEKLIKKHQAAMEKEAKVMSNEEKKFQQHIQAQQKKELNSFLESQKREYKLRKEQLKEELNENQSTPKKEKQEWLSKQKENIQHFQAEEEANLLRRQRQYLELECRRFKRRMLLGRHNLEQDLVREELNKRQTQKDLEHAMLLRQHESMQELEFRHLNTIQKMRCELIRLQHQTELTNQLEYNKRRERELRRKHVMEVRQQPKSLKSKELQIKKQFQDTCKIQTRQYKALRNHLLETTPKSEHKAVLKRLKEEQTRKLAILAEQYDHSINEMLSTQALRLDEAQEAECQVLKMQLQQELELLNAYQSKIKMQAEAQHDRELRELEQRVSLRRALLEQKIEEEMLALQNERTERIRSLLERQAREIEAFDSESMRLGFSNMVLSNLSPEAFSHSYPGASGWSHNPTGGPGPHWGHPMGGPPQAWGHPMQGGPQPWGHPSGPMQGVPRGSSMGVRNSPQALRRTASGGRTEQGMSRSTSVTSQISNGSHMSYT

MNK2 = MNK2 (Homo sapiens, UniProt Q9HBH9)
MLK3 = MLK3 (Homo sapiens, UniProt Q16584)
MNK1 = MNK1 (Homo sapiens, UniProt Q9BUB5)
Sequence of MNK1 (Q9BUB5 whole entry, species assumed): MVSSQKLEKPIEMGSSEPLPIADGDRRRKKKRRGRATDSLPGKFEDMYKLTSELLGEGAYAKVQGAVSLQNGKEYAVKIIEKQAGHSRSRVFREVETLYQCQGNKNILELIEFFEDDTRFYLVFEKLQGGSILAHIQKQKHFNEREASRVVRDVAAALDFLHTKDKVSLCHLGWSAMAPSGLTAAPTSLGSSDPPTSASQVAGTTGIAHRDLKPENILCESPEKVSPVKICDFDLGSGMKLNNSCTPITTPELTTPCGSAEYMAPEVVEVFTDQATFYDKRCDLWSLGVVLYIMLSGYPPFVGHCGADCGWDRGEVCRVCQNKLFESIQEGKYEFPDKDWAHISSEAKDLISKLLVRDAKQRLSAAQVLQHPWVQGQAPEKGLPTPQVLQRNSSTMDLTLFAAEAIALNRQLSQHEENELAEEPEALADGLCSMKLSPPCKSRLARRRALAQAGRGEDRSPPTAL

Sequence of MLK3 (Q16584 whole entry, species assumed): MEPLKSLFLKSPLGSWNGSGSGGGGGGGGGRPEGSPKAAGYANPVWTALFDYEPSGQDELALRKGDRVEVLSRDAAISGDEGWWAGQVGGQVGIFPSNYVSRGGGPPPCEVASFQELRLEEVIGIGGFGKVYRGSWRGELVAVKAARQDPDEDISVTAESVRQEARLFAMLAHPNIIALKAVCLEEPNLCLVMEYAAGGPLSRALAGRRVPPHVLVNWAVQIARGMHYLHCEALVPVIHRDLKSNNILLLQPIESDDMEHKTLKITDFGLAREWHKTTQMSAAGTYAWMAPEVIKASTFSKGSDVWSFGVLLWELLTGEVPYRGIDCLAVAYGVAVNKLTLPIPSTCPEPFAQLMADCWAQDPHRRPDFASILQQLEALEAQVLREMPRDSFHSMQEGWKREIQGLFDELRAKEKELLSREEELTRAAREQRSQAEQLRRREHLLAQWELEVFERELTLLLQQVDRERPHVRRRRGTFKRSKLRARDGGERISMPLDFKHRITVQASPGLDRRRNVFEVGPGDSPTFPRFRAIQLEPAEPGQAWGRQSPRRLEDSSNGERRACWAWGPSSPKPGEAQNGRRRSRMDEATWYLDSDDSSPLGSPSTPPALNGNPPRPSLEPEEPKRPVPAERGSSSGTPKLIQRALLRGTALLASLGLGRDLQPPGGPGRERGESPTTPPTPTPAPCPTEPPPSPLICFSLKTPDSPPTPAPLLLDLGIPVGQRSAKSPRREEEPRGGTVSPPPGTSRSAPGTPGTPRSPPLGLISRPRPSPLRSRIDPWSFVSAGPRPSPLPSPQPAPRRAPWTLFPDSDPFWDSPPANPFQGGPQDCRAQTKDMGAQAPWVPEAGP
Sequence of MNK2 (Q9HBH9 whole entry, species assumed): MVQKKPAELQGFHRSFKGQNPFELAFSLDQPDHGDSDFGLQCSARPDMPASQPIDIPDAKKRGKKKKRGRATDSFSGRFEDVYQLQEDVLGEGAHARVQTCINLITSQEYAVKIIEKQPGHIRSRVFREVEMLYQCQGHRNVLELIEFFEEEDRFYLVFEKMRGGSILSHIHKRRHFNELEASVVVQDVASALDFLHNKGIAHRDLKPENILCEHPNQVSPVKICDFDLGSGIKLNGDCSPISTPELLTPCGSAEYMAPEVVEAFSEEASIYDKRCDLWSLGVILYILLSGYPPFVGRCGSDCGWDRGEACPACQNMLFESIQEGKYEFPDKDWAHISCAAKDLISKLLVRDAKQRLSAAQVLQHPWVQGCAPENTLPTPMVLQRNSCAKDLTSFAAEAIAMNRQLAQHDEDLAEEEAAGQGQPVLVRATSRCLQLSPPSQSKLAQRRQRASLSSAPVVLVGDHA

**Q.** With NCCCC[C@H](NC(=O)[C@H](CC(=O)O)NC(=O)[C@H](CC(=O)O)NC(=O)[C@H](CC(=O)O)NC(=O)[C@H](CC(=O)O)NC(=O)[C@H](CC(=O)O)NC(=O)[C@@H](CC(=O)O)NC(=O)CCCCCCCn1cnc2c(Br)c(Br)c(Br)c(Br)c21)C(=O)O [TBBI-OcA-(D-Asp)-(L-Asp)5-(L-Lys)-OH] (X1-[dD]DDDDDK-OH) as the compound, how does the remaining activity at 1 µM (DYRK2) read?
**A.** 17%

**Q.** And the remaining activity at 1 µM (DYRK3)?
**A.** 30%

**Q.** And the remaining activity at 1 µM (NUAK1)?
**A.** 58%

**Q.** What about the remaining activity at 1 µM (TAO1) of the same compound?
**A.** 84%

**Q.** What about the remaining activity at 1 µM (MNK2) of the same compound?
**A.** 89%

**Q.** And the remaining activity at 1 µM (MLK3)?
**A.** 89%

**Q.** What about the remaining activity at 1 µM (MNK1) of the same compound?
**A.** 99%

Reference: patent US9176064B2, “Bisubstrate fluorescent probes for protein kinase CK2” (University of Tartu, priority 2012, dated 2015)
